The source of these data is patent publication US20180000963A1 (HELIX BIOPHARMA, published 2018).

Values joined by “and” are separate entries in the source; they are usually repeats but may differ in a detail not shown here. Equal values may be shown once.

The chains are these.
B1: CEACAM6 (carcinoembryonic antigen-related cell adhesion molecule 6) on the surface of human tumor cell lines (receptor)
chain: KLTIESTPFNVAEGKEVLLLAHNLPQNRIGYSWYKGERVDGNSLIVGYVIGTQQATPGPAYSGRETIYPNASLLIQNVTQNDTGFYTLQVIKSDLVNEEATGQFHVYPELPKPSISSNNSNPVEDKDAVAFTCEPEVQNTTYLWWVNGQSLPVSPRLQLSNGNMTLTLLSVKRNDAGSYECEIQNPASANRSDPVTLNVLYGPDVPTISPSKANYRPGENLNLSCHAASNPPAQYSWFINGTFQQSTQELFIPNITVNNSGSYMCQAHNSATGLNRTTVTMITVSG
notes: whole, on cells; also called CEACAM6 antigen; NCA

For experiment [1], the target named is T1, L-DOS47 (anti-CEACAM6-urease conjugate); AFAIKL2 antibody conjugated to Jack bean urease through the SIAB … (Jack bean (Canavalia ensiformis), UniProt P07374 1-840, primary amines linked through the SIAB linkage to urease cysteines); activation sites Lys76, Met1 (N-terminal amine), Lys44, Lys32; cysteine thiols linked through the SIAB linkage to AFAIKL2; …).
T1 construct: Chemical conjugate, not a fusion; Hexameric urease (six ~91 kDa subunits) carries 0-4 AFAIKL2 per subunit; In the ECL assays it was labelled with ruthenium-NHS-ester (Sulfo-Tag); also called antibody-urease conjugate; AFAIKL2-urease
T1 sequence (P07374 whole entry, chain 1 of 2, the tested form may be a part): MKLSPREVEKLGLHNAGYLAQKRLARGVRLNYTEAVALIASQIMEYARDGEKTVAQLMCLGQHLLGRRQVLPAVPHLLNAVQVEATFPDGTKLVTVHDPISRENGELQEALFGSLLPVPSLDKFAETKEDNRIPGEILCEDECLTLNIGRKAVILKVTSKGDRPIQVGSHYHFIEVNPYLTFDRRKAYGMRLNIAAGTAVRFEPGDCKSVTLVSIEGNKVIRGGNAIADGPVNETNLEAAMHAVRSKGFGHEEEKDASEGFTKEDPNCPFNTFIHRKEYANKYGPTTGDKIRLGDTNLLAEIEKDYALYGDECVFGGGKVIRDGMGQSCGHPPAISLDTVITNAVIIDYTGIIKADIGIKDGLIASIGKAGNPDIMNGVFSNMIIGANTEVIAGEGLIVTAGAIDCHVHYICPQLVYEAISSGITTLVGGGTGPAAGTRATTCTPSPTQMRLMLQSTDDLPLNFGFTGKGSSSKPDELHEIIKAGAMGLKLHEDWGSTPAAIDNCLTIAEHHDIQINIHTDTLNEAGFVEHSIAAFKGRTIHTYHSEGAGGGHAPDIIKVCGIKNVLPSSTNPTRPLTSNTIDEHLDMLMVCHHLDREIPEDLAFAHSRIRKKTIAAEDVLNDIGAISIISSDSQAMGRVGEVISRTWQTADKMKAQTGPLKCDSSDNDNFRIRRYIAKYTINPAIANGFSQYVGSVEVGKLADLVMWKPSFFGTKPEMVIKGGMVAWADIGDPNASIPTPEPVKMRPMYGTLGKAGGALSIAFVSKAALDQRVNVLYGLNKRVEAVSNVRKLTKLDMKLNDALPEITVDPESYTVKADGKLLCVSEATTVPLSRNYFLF
T1 sequence (VHH, as listed by the source limits assumed, chain 2 of 2): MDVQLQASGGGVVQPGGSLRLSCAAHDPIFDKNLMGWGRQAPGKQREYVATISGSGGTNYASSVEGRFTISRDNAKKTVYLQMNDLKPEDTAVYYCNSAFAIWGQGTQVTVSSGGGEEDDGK
As to the kind of experiment: whole-cell binding assay, ZR-75-30 cells.

The target in experiment [2] is T2, DOS47 (Jack bean urease, unconjugated) (Jack bean (Canavalia ensiformis), UniProt P07374 1-840).
T2 construct: Purified from jack bean; hexamer of six identical subunits; also called HPU; high purity urease
T2 sequence (P07374 whole entry): as the sequence (P07374 whole entry, chain 1 of 2, the tested form may be a part) above
The experiment is described as follows: whole-cell binding assay (ammonia read-out) on BxPC-3, Capan-1, ZR-75-30, LS174T and MDA-MB231 cells.

Experiment [3] has as its target B1. The experiment is described as follows: cell-based ECL competition; unlabelled competitor against L-DOS47-tag (1 µg/mL) on BxPC-3 cells.

B1: the binding result in experiment [1] was “binds”; in experiment [2] it was “no binding”.

B2: AFAIKL2 antibody (single-domain camelid antibody fragment) (VHH)
VHH: DVQLQASGGGVVQPGGSLRLSCAAHDPIFDKNLMGWGRQAPGKQREYVATISGSGGTNYASSVEGRFTISRDNAKKTVYLQMNDLKPEDTAVYYCNSAFAIWGQGTQVTVSS
notes: Expressed in E. coli BL21 (DE3) pT7-7; also called AFAIKL2-tag; native single domain antibody
For B2, in experiment [3], the IC50 is ~20 µg/mL and ~1.55 µM.
